Results taken from US20250243263A1 (VOYAGER THERAPEUTICS, published 2025).
Where no end group is shown, it is not given here. [ ]: non-standard residue; d: D form. pT = C[C@@H](OP(=O)(O)O)[C@H](N)C(=O)O; pS = N[C@@H](COP(=O)(O)O)C(=O)O

T1: wtTau C2 (human)
T1 peptide: PTREPKKVA

T2: tPeptide 5 (204-222) (human)
T2 peptide: GTPGSRSR[pT]P[pS]LP[pT]PPTRE

T3: AC04 peptide (human, phosphothreonine at T212 and T217 of tau (peptide positions 4, 9))
T3 construct: Tau-derived peptide with an N-terminal Cys
T3 peptide: CSRTPSLPTPPTREPK

T4: AT8 peptide (amino acids 195-215 of tau) (human, phospho-peptide, phosphorylated sites not stated in the example; immobilized on streptavidin tips)
T4 peptide: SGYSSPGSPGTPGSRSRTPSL

T5: AT270 peptide (pT181; Tau172-186) (human)
T5 peptide: PAKTPPAPK[pT]PPSSG

B1: VY004 (antibody, V domains shown)
VH: EVQLVESGGGLVQAGGSLRLSCAASGFTFSDYSMNWVRQAPGKGLEWVSYIRSSSSIIYYADSVKGRFTISRDNAKNSLHLQMNSLRDEDTAVYYCARRGHFDYWGQGTLVTVSS
VL: EIVLTQSPATLSLSPGERATLSCRASQSVSDYLAWYQQKPGQAPRLFIYDVSKRATGIPARFSGSGSGTDFTLTISSLEPEDFAVYYCQQRSNWPLTFGGGTKVEIK
B2: VY017 (antibody, V domains shown)
VH: EVQLVESGGGLVQPGGSLRLSCAASGFTFSSYSMNWVRQAPGKGLEWVSYIRSSSSTIYYADSVKGRFTISRDNAKKSLYLQMNSLRDEDTAVYYCARRSIADYWGQGTLVTVSS
VL: EIVLTQSPATLSSSPGERATLSCRASQSVTSYLNWYQQKPGQAPRLLIYDASNRATGIPARFSGSGSGTDFTLTISSLEPEDFALYYCQQRSNWPYTFGQGTKLEIK
B3: VY018 (antibody, V domains shown)
VH: QVQLQESGPGLVKPSETLSLTCTVSGGSISNYYWSWIRQPAGKGLEWIGRIYTSGDTYYNPSLQSRVTMSVDTSKNQFSLKLSAVTAADTAVYYCARAGIVGTPGLGMDVWGQGTTVTVSS
VL: SYELTQPPSVSVSPGQTARITCSGEALPKQYAYWYQQKPGQAPVLVIYKDSERPSGIPERFSGSSSGTTVTLTISGVQAEDEADYYCQSADSSGTYRVFGGGTKLTVL
B4: VY012 (antibody, V domains shown)
VH: EVQLLESGGGLVQPGGSLRLSCAASGFTYSSYAMSWVRRAPGKGLEWISIISGSSSITYYADSMKGRFTISRDNSKNTLFLQMNSLRAEDTAVYYCAKGGRYGYFQHWGQGTLVTVSS
VL: SYVLTQPPSVSVAPGQTARITCGGNNIGSKSVHWYQQKPGQAPVLVVYDDSDRPSGIPERFSGSNSGNTATLTISRVEAGDEADYYCQVWDSSSDPVVFGGGTMLTVL
B5: VY007 (antibody, V domains shown)
VH: EVQLVESGGGLVQPGGSLRLSCAASRFTFSNYNMNWVRQAPGKGLEWISYISSSSSTIYYADSVKGRFTISRDNAKNSLSLQMNSLRDEDTAVYYCASLGRGYWGQGTLVTVSS
VL: not shown
B6: VY001 (antibody, V domains shown)
VH: EVQLVESGGGLVQPGGSLRLSCAASGFTFSSYNMNWVRQAPGKGLEWISYISSSSNTIYYADSVKGRFTVSRDNAKNSLYLQMNSLRDEDTAVYYCATLGRGYWGQGTLVIASS
VL: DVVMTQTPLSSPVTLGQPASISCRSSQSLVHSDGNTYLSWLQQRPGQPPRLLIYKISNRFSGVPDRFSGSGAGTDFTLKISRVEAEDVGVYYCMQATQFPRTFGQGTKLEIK
B7: VY011 (antibody, V domains shown)
VH: QVQLQESGPGLVKPSETLSLTCTVSGGSISNYYWTWIRQPAGKGLEWIGRVYTSGSANYNPSLKSRVTMSVDTSKNQFSLTLSSVTAADTAVYYCARDRGLYYWGQGTLVTVSS
VL: DIVMTQTPLSSLVTLGQPASISCRSSQSLVHSDGNTYLSWLQQRPGQPPRLLIYKISKRFFGVPDRFSGSGAGTDFTLKINRVEAEDVGIYYCMQATQFPLTFGGGTKVEIK
notes: also called VY0I1; VY0111 (misprints in the text)
B8: VY013 (antibody, V domains shown)
VH: QVTLKESGPVLVKPTETLTLTCTVSGFSLINARMAVSWIRQPPGKALEWLAHIFSNDEKSYSTSLKSRLTISKDTSKSQVVLIMTNMDPVDTATYYCARIRGYSYNYGMDVWGQGTTVTVSS
VL: DIVMTQSPLSLPVIPGEPASISCRSSQSLLHSNGYIYLDWYLQKPGQSPQLLIYVGSNRASGVPDRFSGSGSGTDFKLKISRVEAEDVGVYYCMQTLQIPRTFGGGTKVEIK
B9: VY016 (antibody, V domains shown)
VH: EVQLVESGGGLVQPGGSLRLSCAASGFTFSSYSMNWVRQAPGKGLEWVSYISRSGSTIYYADSVEGRFTISRDNAYNSLYLQMISLRDDDTAVYYCARGNWAYWGQGILVTVSS
VL: QSVLTQPPSVSGAPGQRVTISCTGSSSNIGAGYDVHWYQQLPGTAPKLLIYGNSNRPSGVPDRFSGSKSGTSASLAITGLQAEDETDFYCQSYDSSLSGSVFGGGTKLTVL
B10: VY009 (antibody, V domains shown)
VH: QITLKESGPTLVKPTQTLTLTCTLSGFSLSTSEVGVGWIRQPPGKALEWLAIIYWNDHKRYSPSLKNRLTFTKDTSKNQVVLTMTNMDPVDTATYYCARRVTGEGFDPWGQGTLVTVSS
VL: SYELTQPPSVSVSPGQTARITCSGDALPKQYAYWYQQKPGQAPVLVIFKDTERPSGIPERFSGSSSGTTVTLTISGVQAEDEADYYCQSADSSGSYVFGTGTKVTVL
B11: VY019 (antibody, V domains shown)
VH: QVQLQESGPGLVKPSETLSLTCTVSGGSISSYYWTWIRQPAGKGLEWIGRIDTSGSTNYNPSLKSRVTMSIDTSKKQFSLKLSSVTAADTAVYYCARGGDGYRYWGQGTLVTVSS
VL: SYELTQPPSVSVSPGQTARITCSGDALPKQYACWYQQKPGQAPVLVIYKDSERPSGIPERFSGSSSGTTVTLTITGVQAEDEADYYCQSTDSSGSWVFGGGTKLTVL
B12: VY006 (antibody, V domains shown)
VH: EVQLVESGGGLVQPGGSLRLSCAASGFTFSSYTMNWVRQAPGKGLEWVSYISSSSSTIYYADSVKGRFTISRDNAKNSLYLQMNSLRDEDTAVYYCASLGRGDCWGQGTLVTVSS
VL: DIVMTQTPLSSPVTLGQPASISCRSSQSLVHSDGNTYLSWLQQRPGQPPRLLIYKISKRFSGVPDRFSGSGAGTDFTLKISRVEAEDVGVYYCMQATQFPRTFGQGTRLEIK
B13: VY005 (antibody, V domains shown)
VH: EVQLVESGGGLVQPGGSLRLSCAASGFTFSSYSMNWVRQAPGKGLEWISYISSSNSTIKYADSVKGRFTISRDNAKNSLYLQMNSLRDEDTAVYYCARRSLGDYWGQGTLVIVSS
VL: DIQLTQSPSFLSASVGDRVTITCRASQGISCSLAWYQQKPGKAPKLLIYAASTLQSGVPSRFSGSGSGTEFTLTISSLQPEDFATYYCQQFNSYPFTFGPGTKVDIK

Tests used:
iPHF [1] = biological target: T6, iPHF (UniProt P10636-8 2-441, limits assumed); experiment: SPR (Biacore 8K)
T6 construct: also called iPHF tau

[2] = biological target: T7, enriched paired helical filament tau protein (ePHF; sarkosyl insoluble tau) (human, UniProt P10636 2-758); experiment: follow up selectivity analysis, ePHF over wild-type tau; method not stated
iPHF [3] = biological target: T6, iPHF; experiment: BLI (Octet), antibody on biosensor tip, iPHF in solution
Procedure: Anti-human tau antibodies were assessed for affinity for iPHF by Octet (ForteBio, Menlo Park, CA) analysis. A set of recombinant human IgG1 antibodies were prepared with clone-specific variable domain pairs selected from those presented in Table 1 and human IgG1 constant domains. Candidate antibodies were immobilized on biosensor tips (ForteBio) in kinetic buffer (ForteBio). Biosensor tips were then washed before introduction of a solution of iPHF in kinetic buffer for analysis of association and dissociation with candidate antibodies.

wtTau C2 = biological target: T1, wtTau C2; experiment: one point ELISA
Description: (§1) One-point ELISA was used to determine differential binding based on the individual phosphorylation patterns of each peptide. OD values (450 nm) were collected (as shown in Table 13), where a stronger positive signal is shown as a higher OD value, which is indicative of increased binding.

tPeptide 5 (204-222) = biological target: T2, tPeptide 5 (204-222); experiment: one point ELISA
Description: as §1

AC04 peptide = biological target: T3, AC04 peptide; experiment: one point ELISA
Description: as §1

iPHF [4] = biological target: T6, iPHF; experiment: follow up selectivity analysis, iPHF over wild-type tau; method not stated
[5] = biological target: T7, enriched paired helical filament tau …; experiment: direct ELISA, ePHF coated
Procedure: (§2) A set of recombinant human IgG1 antibodies were prepared with clone-specific variable domain pairs selected from those presented in Table 1 and human IgG1 constant domains. These candidate antibodies were analyzed for binding to ePHF and specificity for ePHF over wild type tau by direct ELISA.
(§3) For direct ePHF and wildtype tau ELISA, plates were first coated with ePHF or wild type tau. Antigen solutions were prepared in PBS and 50 μL were pipetted into each well. Plates were covered and incubated for one hour at 37° C. or overnight at 4° C. Plates were then washed and blocked by addition of 150 μl of blocking buffer to each well and incubated one hour at room temperature. Plates were then washed before addition of serially diluted candidate antibody samples prepared in blocking buffer. Detection of candidate antibody binding was carried out by washing plates and adding a solution of enzyme-labeled secondary antibody in blocking buffer to each well. Secondary antibody binding was detected by addition of substrate and spectrophotometric analysis of resulting reaction product.

[6] = biological target: T7, enriched paired helical filament tau …; experiment: cell-based or functional assay
wild type tau = biological target: T8, wild type tau (human, UniProt P10636 2-758); experiment: direct ELISA, wild type tau coated
T8 construct: also called WT
Procedure: as §2, §3

[7] = biological target: T4, AT8 peptide (amino acids 195-215 of tau); experiment: BLI (Octet), phospho-peptide on streptavidin tips
Procedure: Briefly, phospho-peptides were immobilized on streptavidin biosensor tips and the binding ability of each antibody was assessed using an eight-point concentration gradient.

[8] = biological target: T9, pS199-old (SCBio-4PEG-Peptide, Tau191-214) (human, phosphoserine at S199 of tau by the row label; SCBio-4PEG label); experiment: one point ELISA
T9 construct: The suffix -old is not explained
Description: as §1

[9] = biological target: T10, Tau191-214 phospho-peptide (pS199) (human, phosphoserine at S199 of tau (peptide position 9); SCBio-4PEG label); experiment: one point ELISA
T10 construct: also called pS199 peptide
Description: as §1

[10] = biological target: Tau191-214 phospho-peptide (pS202) (human, phosphoserine at S202 of tau (peptide position 12); SCBio-4PEG label); experiment: one point ELISA
Description: as §1

[11] = biological target: Tau191-214 phospho-peptide (pT205) (human, phosphothreonine at T205 of tau (peptide position 15); SCBio-4PEG label); experiment: one point ELISA
Description: as §1

[12] = biological target: T5, AT270 peptide (pT181; Tau172-186); experiment: one point ELISA

T8 sequence (P10636 other isoform, or with tags, fused parts or gaps limits assumed): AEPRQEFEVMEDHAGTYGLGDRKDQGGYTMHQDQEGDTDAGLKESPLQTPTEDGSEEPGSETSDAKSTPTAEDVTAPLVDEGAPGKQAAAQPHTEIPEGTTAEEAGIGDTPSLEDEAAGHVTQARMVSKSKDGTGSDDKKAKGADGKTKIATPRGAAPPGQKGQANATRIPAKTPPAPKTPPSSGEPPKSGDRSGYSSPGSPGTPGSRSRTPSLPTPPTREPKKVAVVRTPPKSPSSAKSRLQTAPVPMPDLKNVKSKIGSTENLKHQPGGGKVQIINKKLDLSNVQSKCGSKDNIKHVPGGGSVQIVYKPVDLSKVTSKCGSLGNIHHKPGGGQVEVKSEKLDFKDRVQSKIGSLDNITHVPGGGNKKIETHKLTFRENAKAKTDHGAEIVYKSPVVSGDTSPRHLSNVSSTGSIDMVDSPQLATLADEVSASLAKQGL
T7 sequence (P10636 other isoform, or with tags, fused parts or gaps limits assumed): as above
T6 sequence (P10636 other isoform, or with tags, fused parts or gaps limits assumed): as above
T9 sequence (peptide, as listed by the source): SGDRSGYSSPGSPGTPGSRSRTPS

Binder | Kd (iPHF [1]) | selectivity ePHF:WT [2] | Kd (iPHF [3]) | selectivity iPHF:WT (iPHF [4]) | EC50 [5] | Average IC50 (nM) for inhibiting tau aggregation after immunodepletion of ePHF (tau RD Biosensor cells) [6] | Kd [7] | further results
B1 | 11.7 nM | > 59 fold | 3.7 nM | > 382 fold | 0.07 nM | 9.39 nM | – | OD (450 nm) (wtTau C2): 0.169 OD450; OD (450 nm) (tPeptide 5 (204-222)): 0.382 OD450; OD (450 nm) (AC04 peptide): 2.85 OD450
B2 | – | – | 3.7 nM | – | – | – | – | –
B3 | – | – | 3 nM | > 73 fold | – | – | – | –
B4 | – | – | 5.1 nM | – | 0.04 nM | – | – | EC50 (wild type tau): 0.01 nM
B5 | 0.596 nM | > 23 fold | 0.6 nM | > 109 fold | 0.18 nM | 36.3 nM | 18.2 pM | OD (450 nm) [8]: 0.057 OD450; OD (450 nm) [9]: 0.057 OD450
B6 | 0.293 nM | > 181 fold | 7.7 nM | > 30 fold | 0.02 nM | 12.5 nM | 4.35 pM | OD (450 nm) [8]: 0.059 OD450; OD (450 nm) [9]: 0.059 OD450
B7 | 0.238 nM | > 137 fold | 2 nM | > 108 fold | 0.03 nM | 18.1 nM | 8.9 pM | OD (450 nm) [10]: 0.06 OD450; OD (450 nm) [11]: 0.06 OD450; binding result [12]: no binding
B8 | – | – | 2.9 nM | – | 0.06 nM | – | – | EC50 (wild type tau): 0.98 nM
B9 | – | – | – | – | – | – | – | binding result (wild type tau): no binding; binding result [5]: no binding
B10 | – | – | 1.1 nM | – | 1.74 nM | – | – | –
B11 | – | – | – | – | – | – | – | binding result (wild type tau): no binding; binding result [5]: no binding
B12 | 0.356 nM | > 40 fold | 1.5 nM | > 145 fold | 0.11 nM | 8.3 nM | 3.82 pM | OD (450 nm) [8]: 0.063 OD450; OD (450 nm) [9]: 0.054 OD450
B13 | – | – | 1 nM | – | 0.07 nM | – | – | OD (450 nm) (wtTau C2): 0.153 OD450; OD (450 nm) (tPeptide 5 (204-222)): 0.288 OD450; OD (450 nm) (AC04 peptide): 2.83 OD450
